Experimental data: patent publication US20130130347, “CONSTRUCTS AND METHODS FOR THE ASSEMBLY OF BIOLOGICAL PATHWAYS” (CORNELL UNIVERSITY, published 2013)

Legend:
MBP-ZFc (OZ076) = MBP-ZFc (OZ076) (artificial); assay: EMSA; biotinylated oligo, flanks not given; text states low nanomolar affinity without values; conditions: label: 5'-biotin
Method: (§1) From this analysis, the amount of ZF-chimera present in cells was estimated at approximately 5000 per cell or 8 μM. The plasmid concentration in cells was determined to be approximately 127 per cell or […]. These values were used to design/select ZF domains with appropriate affinity and to design DNA scaffolds with enough binding sites to accommodate all ZF fusion proteins. FIG. 4B is a western blot analysis comparing the soluble and insoluble protein levels of unmodified MBP with MBP fused to 1, 2, 3 or 4 fingers as indicated. Flow cytometric analysis of cellular fluorescence levels of superfolder green fluorescent protein (sfGFP) fused to increasing number of fingers as indicated (FIG. 4B; right). FIG. 4C is an EMSA of purified PBSII-nYFP and cYFP-Zif268 chimeras using […] DNA with PBSII or Zif268 binding sites. MW, molecular weight ladder. Arrow indicates chimera-DNA complexes. EMSA of purified MBP-ZFa, MBP-ZFb and MBP-ZFc chimeras using varying amounts of biotinylated DNA containing the ZFa, ZFb or ZFc binding site is shown in FIG. 4D. Detection of DNA and DNA-protein complexes was with streptavidin-HRP against biotinylated DNA. […]
(§2) For EMSA with PBSII and Zif268, 1 μg of the purified PBSII-nYFP and cYFP-Zif268 chimeras were incubated with 375 μM scaffold DNA for 3 h. […] Nucleic acid-protein complexes were detected under UV light. […]

MBP-ZFb (OZ300) = MBP-ZFb (OZ300) (artificial); assay: as above; conditions: label: 5'-biotin
Method: as §1, §2

PBSII-nYFP chimera [1] = biological target: PBSII-nYFP chimera (artificial); assay: EMSA; full oligo sequence not given; text states low nanomolar affinity without values; conditions: tags: nYFP C-terminal fusion, His
cYFP-Zif268 chimera [2] = assay: as above
PBSII-nYFP chimera [3] = biological target: PBSII-nYFP chimera (artificial); assay: SPR; injected as mixture with cYFP-Zif268, 5 uM; same SPR buffer with 0.1 mM ZnCl2; conditions: tags: nYFP C-terminal fusion, His
Method: Proteins that were directly dialyzed against buffer A (see above) were used in surface plasmon resonance (SPR) experiments. Proteins were further concentrated using Amicon Ultra-15 Centrifugal Filter Unit with Ultracel-10 membrane. The experiments were conducted using T100 apparatus (GE Healthcare, Biacore) and streptavidin-coated sensor chip (SA). […] The biotinylated single-stranded anchor DNA (5′-CGCTCGAGTAGTAAC-3′-Biotin; SEQ ID NO: 41) was immobilized on all four flow-cells. The anchor allowed capture of the double-stranded DNA molecule with complementary overhang. A DNA scaffold (5′-[…]-3′; SEQ ID NO: 42) was used that contained ZF binding sites for Zif268 and PBSII (underlined), respectively. Control DNA (5′-[…]-3′; SEQ ID NO: 43) contained a scrambled version of the scaffold and was used to correct the responses for unspecific binding of ZF chimeras. The control DNA was immobilized in the first flow-cell, while the DNA scaffold was used in the second flow cell. Typically, immobilization of control and scaffold DNA used 0.5 μM DNA and was performed for 5 min at 5 μl/min. Protein binding was measured following injection of appropriate concentration of PBSII-nYFP and/or cYFP-Zif268 chimeras in the SPR buffer. The surface of the sensor chip was regenerated by two 30 s injections of 50 mM NaOH that removed the DNA from the anchor.

cYFP-Zif268 chimera [4] = assay: SPR; 20 mM HEPES pH 7.4, 150 mM NaCl, 2 mM DTT, 0.1 mM ZnCl2; 1 and 5 uM protein
MBP-ZFa (OZ052) = MBP-ZFa (OZ052) (artificial); assay: EMSA; biotinylated oligo, flanks not given; chimera-DNA dimer also seen; text states low nanomolar affinity without values; conditions: label: 5'-biotin
Method: as §1, §2

cYFP-Zif268 chimera [5] = assay: SPR; random scaffold reference, 1 uM protein; used to correct for unspecific binding

Chain of PBSII-nYFP chimera (artificial) (chain, as listed by the source mutant): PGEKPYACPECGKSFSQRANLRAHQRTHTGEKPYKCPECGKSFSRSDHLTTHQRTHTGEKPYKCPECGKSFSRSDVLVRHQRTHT
Chain of MBP-ZFc (OZ076) (artificial) (chain, as listed by the source): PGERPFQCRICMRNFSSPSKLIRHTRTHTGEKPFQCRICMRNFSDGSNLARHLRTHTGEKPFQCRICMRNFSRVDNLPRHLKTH
Chain of MBP-ZFa (OZ052) (artificial) (chain, as listed by the source): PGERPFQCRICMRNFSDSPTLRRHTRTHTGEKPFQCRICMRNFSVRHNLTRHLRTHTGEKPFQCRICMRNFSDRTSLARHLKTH
Chain of MBP-ZFb (OZ300) (artificial) (chain, as listed by the source): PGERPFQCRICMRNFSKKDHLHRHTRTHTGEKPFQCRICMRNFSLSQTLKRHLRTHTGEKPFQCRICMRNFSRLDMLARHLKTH

B1: ZFc binding site DNA (dsDNA)
DNA 1: GAGGACGGC
DNA 2: GCCGTCCTC
MBP-ZFc (OZ076)
  binding result: binds

B2: ZFb binding site DNA (dsDNA)
DNA 1: GCGGCTGGG
DNA 2: CCCAGCCGC
MBP-ZFb (OZ300)
  binding result: binds

B3: PBSII binding site DNA (dsDNA)
DNA 1: GTGTGGAAA
DNA 2: TTTCCACAC
PBSII-nYFP chimera [1]
  binding result: binds

B4: Zif268 binding site DNA (dsDNA)
DNA 1: GCGTGGGCG
DNA 2: CGCCCACGC
cYFP-Zif268 chimera [2]
  binding result: binds

B5: DNA scaffold with Zif268 and PBSII sites, 2-bp spacer (dsDNA)
DNA 1: GTTACTACTCGAGCGATCGGAATTCGAAGGGGAATTGCTGCTGCGGTGTTTGGATGGAGCGTGGGCGGGGTGTGGAAATTGATGCTGCATTGACCACCCAAGACGACTGCAGTACA
DNA 2: TGTACTGCAGTCGTCTTGGGTGGTCAATGCAGCATCAATTTCCACACCCCGCCCACGCTCCATCCAAACACCGCAGCAGCAATTCCCCTTCGAATTCCGATCGCTCGAGTAGTAAC
PBSII-nYFP chimera [3]
  binding result: binds
cYFP-Zif268 chimera [4]
  binding result: binds

B6: ZFa binding site DNA (dsDNA)
DNA 1: GTCGATGCC
DNA 2: GGCATCGAC
MBP-ZFa (OZ052)
  binding result: binds

B7: scrambled control scaffold (dsDNA)
DNA 1: GTTACTACTCGAGCGGAATTCATCTAAGTTACTAGAGTCCTTATAGTTGACTCTTGTTCCACATTCTACTGTACACGCTCAGTACTCGAGCATACCTATCTCCTGCAGTACA
DNA 2: TGTACTGCAGGAGATAGGTATGCTCGAGTACTGAGCGTGTACAGTAGAATGTGGAACAAGAGTCAACTATAAGGACTCTAGTAACTTAGATGAATTCCGCTCGAGTAGTAAC
cYFP-Zif268 chimera [5]
  binding result: no binding
